Data: the DeepSol protein solubility set

test: soluble on expression in E. coli; label from the status in PepcDB or PDB records

| Sequence | soluble on expression in E. coli |
| --- | --- |
| MNRKKLAAYGQEFEDDDEEGSSVSKKPTQIHEEIATDEKGKRRFHGAFTGGFSAGYWNTVGSKQGWVPQVFSSSRNERGEQIKQRAEDFMDAEDLGEYGIGNRSIKQTAAFGEGAGQKRKMAWERDTTSISTITQMFEDVVKPVSNSIGVRMLRSMGWREGRGIGLANVKQKQKRGGESSEAQFDREQASKVAPAYEFSNEDALVKQLTPLTGTHGIGYQGLRKTTVLNESYGRTTLALKSGKKNSKGIKGQAFGVGAFEEEDESVYSNYDLSQFDFSLDVAGASEESNLKTQKLVTAFELQPKRLNPRKFYAPPRVPPNFRGDHRPIPMDISKLPQMMKNDVKHMNAEQRAKFLGEDRVNALEIGGKSSKKPTERRSRWDIKANEVEKRDNERGGGEAEEDRDRRQRNRIEFPDEPMRQARFKEFLHYIRRGLPYPQPTDLTVWEWEWEKKEFESKLTSDERGMLPEVQSRAQPLAKTAIAAPIHEMMASKFVKEAGGDLKVGTKDEDKLAAVKMEMFGEKTRQSFDWYPDNLLAKRFNVPHPYPGSDTVGVPALQKTDWKRKDRLADIGGVSATLGLPNTANEIEMRERLLKSRAQRGAEEKKRNQSDDDDEKEYDDKDSDEEEENEAEPNNQKVDKAPKSFFDFIFGDGDGADSDESNSEDEEAEEKERQEILKKREEDLKRRREIVEKKEEENRKRVEKELKELENRDLLRVSKQQEDDDIQIIDETSASSFGPALPPSSKPVLSKTEVLKLLEKNMKKKKKDKKEKEKKKKSKKSKKSKKEKKTKRKHSSSSADDSGDNSDGWEEKK | not soluble |
| MGSDKIHHHHHHMLCNETTSTRDLILLGLKRHGERSVGEMAKELEITEMAVRRHIQALEKDGFVQTKLVRQAMGRPTTKYLLTEKGEERFPRNYLPLTLGFLKDIEELSGIDMIHVLFEKRKERLLAEYANQMKGCSFSERVEVLAQIQNDNGYMVEWKKIDDDTYQFIEYNCPISQVAKAYPVACACEKKLFKELLQTEAVVDNCCAAKDEAGYCSYTLKKPSVDG | not soluble |
| MAHHHHHHMEEGDQATDAAETSALAANTLTREEQPDERSKNEVTLLEIKRKVQNEKEAQKDDNKQRKFKIINYTSKDSLVSKVEKEFFLFFCFLCGFNCLISETDVADLPRRKTDGSIIFPFKKIVHKKYYKTKKECILIRRREDALEVQFRILCKECGVPIGYVNSLADDNAYVYYYDYSFVRSQTKSRLFKDVSL | not soluble |
| MIDFACKEFKVEDVIKCALNLTKADLNVMKSFLNEPDRWIDTDALSKSLKLDVSTVQRSVKKLHEKEILQRSQQNLDGGGYVYIYKIYSKNQIRNIIQKIVQSWADRLGQELKEWENGGE | not soluble |
| MAHHHHHHMHSAALRRREEAAKSLAELEPEYAQIVADLPALEARKAAAEKEQEALWAELGMKQDESEAGLYESEFSDEATSCIRWCETGGCIGTGPRESHRDKSCSNVIDRDSSGYCECKTNDKKDEPEDDEEDVEPEAEGEGTEVRRGTVTYRFSSGHPRFTCMYVCDHSGEAGVDQQPEKLESFTILGELREASKSLERKKNRLEEVKGAMEAAKKLLSSPTITTEDLLRTLEKEEFTIDFQEYTYAIVMFDTVYQRDMGMTTGGNLLGLWKSFAENTYSVWAKDAHDLTQMIYDNGLKCWNGVVRNVEVHLVCGPENKLMTVEEPSMCNYRMVFETPAMCDD | soluble |
| MPLSDADYNDPDNEEVAFLSRGLLEACIEFIRETPAGDALRIVAYEFTFKRILLELKAALERGVDVRIVYHATTANEKAIADAKLPENSKGVQILFKRTRPQTPHNKFIVRLKKGKTPVSVWTGSTNFTPSGFLGQTNVGHKVTDGDIAKIYLQLWEGLKADPDDFDATQAAMALTPLEHHHHHH | soluble |
| MPNMGIEKLYVSQQLTDSAAGMTFTKPQYYKYVQELSLKPKVNSASAYAENRKVDQDTQFDSCDVSINLFQMTSSQRAFMLGQSLAGGGGAIGALNDKAPWITLLYKAPIKVDDTIYYRYGVIYKTQFQPPDDDYKTTEGKPDFSQVPKISGSAQPTEWSFKDGKLEKHPWEWHVDTCDPNCPENIDDTWFNSVSIPSLVTYGSLSLSASSPKDGATGISLDTKPSLTFNNPIMNATSILLYNVSDGATVNTTTSSDSSGKIITITPSTNLVANKNYVLVVQDVTDLYGQTLDTQLIRFTTATAASLEHHHHHH | soluble |
| MSLQHACIFLELLKITYIHCMKRLLSLYLVLSGFLLHAQTVKELKTVASSFSEMAKIPAGSFLKHEYSFLNIQPTKQDTNLLFCIHPEATITKVTTSFYISTHEVTNAEYRQFIVWVTDSLIKNNITFDTVFYRYTTPSGKSTRISIVPDTMNRVLRDMFGYCNLNYYTHKEFISFPTTNISWHQAQAYIHWLNNRMLELLKKNHVPTTDWGKYRLPEALEWEYAAMIVEKNGDWFNQRNPDAYNIYGWLDYPLTTKEGLYKANFGLIRDLNHMVIKARWDDNYDALAPVKKYVPSLMGLYDLSGNVSEWTNTSISLDSLNKFYAGYYSNLLQTKYQHLFEELLKPAPDWKKFDAFKAESVRGRYDAQAQQYWFNEYVIRVKEMENYNRSILSRISDGMLVKGGSWDNPPVYMINTCSQVLSKNFTTPQTGFRVALTLEPAFEKLLGSYLTGEGHHHHHH | not soluble |
| MSLESTNRLRYLIAGTGGVGGSIAGFLSLAGKDVTCIARGAHLQAIQQDGLKLKSDLKGEHALRINACTAEEYNGKADVIFVCVKGYSVDSITELIKRAAHDRTIVIPILNVYGTGPRIQRLVPGVTVLDGCIYIVGFVSGPGEITQMGTIFRLVYGAHRGILVPAGLMEAVQRDLQESGIKVEISSDINRDTFIKWSFISAMAVTGAYFDVPMGEVQKPGKVRDTFIGLSTESAALGKKLGIEFKEDIVTYNLKVIDKLAPESTASMQKDIARGHESEVQGLLFDMITAAEEQGIDVPTYREVAKKFIKQEGHHHHHH | soluble |
| MAHHHHHHMNESVEQLFDELISDFNKNDKIGEGNESFNIREKVGNKWTNEDILNNINKNDFSKYTEYSLSSLYITDERIHIDEDNKFQDFLNVITKASDVNNIYKWIDSYYKYDSKEELDILSPKAQKKEYIFREYLEPFHLKGLCLLRKYEKGAILKSSEKSKVDVNIVSEYIVHNTYKQIMKSFGYYLSHKIYIKAHIFHNKYGNSDHIIVLILQHFKDENFKQPLFHDRALVQIKSYSNDNKYSELTQKNLLHYAEIFKPFVSLRKLNYNFVEEFKDKIMFGI | soluble |
| MGHHHHHHAIAENLYFQSKLVEKTTTTEQDNGEDFCRTIIEVSEVNRNVFQAPGGEADPFRVVSGEELHLIPPLNFSMVDNGIFRSGFPDSANFSFLQTLGLRSIIYLCPEPYPESNLQFLKSNGIRLFQFGIEGNKEPFVNIPDHKIRMALKVLLDEKNHPVLIHCKRGKHRTGCLVGCLRKLQKWCLTSIFDEYQRFAAAKARVSDQRFMEIFDVSSFSHIPMSFSCSIR | soluble |
| MGSDKIHHHHHHVLVRRLAQAPVPIAGVAVLGTITPEDQQAAEDARLPLLQLPEGVDLREVEREITRLITDYEAQFERRAARLYDLLTQCSLQGGGISGLLDILHERTGQSVAFYASNGVLRAQRGRGQSRLALQALRPNGRGETTLLNQQIWVEPIGNSGLPIGYVAIAGTLLDPWDRTAAQRGALALALELAKEQAVQAAEERLRGDFIAGILAGAPGDLAAVIQRGQELGYTLHLPHTAMLVHIDDASTATLARAATNIQNELKRLGVNAPISRRESNVLCMLPTTSVTRLRELTEQLRERLRLDHPNVVIAIGTPATHLTEWRRSVEEAEQSLSLGRQIFGNDRVLAFGDLGVYRLLIRLRETPELWSFYRETLSSLAEYDKRQHADLIKTLEAYFNHLGNLRATSEALHVHRNTLLYRLERIKEISGMDLDNAEEHFALWLAVRAHRILATLEE | not soluble |
| MIEMTPDSSVYKALLESTKAIPWKINWQTMAFEYIGPQIEALLGWPQGSWKSVEDWATRMHPEDQEWVVNFCVKQSECGVDHEADYRALHRDGHYVWIRDVVHVVRDDSGEVEALIGFMFDISERKKTLEHHHHHH | soluble |
| MGSDKIHHHHHHMPGPYNEMDVAISYIHNHLYEPLSLSHIASYVGYSSYHFSRLFKEKTGLSPLYYVSSLRLQKAKELLLNTNLTVRDIGLEIGQQSLGTFTTRFTKCVGMSPSHFRESMNQVNHSLHSLQMLSDWRTSLQSIHPFSTVTGTIDSEAPLEGFILIGLFSKPIPEGLPLYGNLLSSTGAFSFTGVTPGIYYLMATSISWSMQAKDILLPYTTLRGRIKEPIIVTSSPSILEYSLTLHTPRLDDPPILISLPLLMKNFLKARIAT | not soluble |
| MAHHHHHHMKMISFNVFRHVESPACCPPASFVADLSITSKKNTHKHLLSFFIFPLFLESLSVMLPTQKPVLFTPGPLMTSDTVKEAMLTDYASRDIRFVQAVKFIREELISVAGLDPQKWACILQQGSGSMGIEAAISTIFPRTGGKFLLINSGKYSEKQACVVKRLQFPMVMLKMGEGEELKMSALESIIRANPDITTVGFVHHETSTGMLYPAEQIAEVVRRELPKAKIIIDGISAFGGIPCDYEKACDVLVAAPNKCLHSVPGISIILARRLLIEAAKGCARSATLDLSMQLMSFDKSGQFAVTPPVHVVMALQQALVEYKRDGGLSGRQKTYQAKAQLVREAVKAMGFTLFLGESKPSCANVVVCVNMPRDPRWNFKRFYTYLNERGLIIYPGKASHAETFRFGIIGHTSLANCERLMKCAKEALKSMGIDHLQRKSNM | not soluble |
| MNALPPARRLRVASIGGGFSGAALAWHLARAHRPERLSISVIEPRLALGGGLAYSSEEPSHRVNVPAVRMSMAPDDPQHFVRWLAGSGELERDADAIWKNGDAYPRRRVFGRYVAEHLAPYLASGAVRHVGGPATGVTREANGAGWTVQTSAGPVIADIVVLAATHPAPAIPAALASLAEASGFVADPYAASALAGIGLDASVLIVGSGLTSADMVTELDRRGHRGRVLALSRRGLRSRGHPDVRGEPFGDFASAPATSALGLLKSIRATLAAAREANVNWQSVFDQLRLQGPVLWAALAPSERARLVRQLRVFWDVHRFRIAPQIASVLDRRQTAGTFDTIAARLVASNDEGENLAVSFQRRGQTRIETARFDAVINTTGPAHGQALQLNPALRSLAEAGLIRSDAYGLGIETSLDSRAIGWDGEAVAGLFVAGPLARGTFGELMGLPEVARHAQMVAAEIARLVDRFPSAEAVGANAGDVATARLEHHHHHH | not soluble |
| MGSDKIHHHHHHAQQPVELPLWPDGAPNSNGLTGGEKEVSPHRLSNVTAPTITVYRAPQPNGMAVIMCPGGGYSRLAMDHEGHDMASWFCGQGITYVVLKYRMPNGHCEVPLSDAERAIRIVREHAGEWNIHPRKIGIMGASAGGHLASTLATHYSAASRPDFQILLYPVVTMTQSTHGGSRKELLGGNPTAEQEVLFSNELQVTSDTPQAFIVLSSDDGAVPPSNGVNYYLALQKNNVPASLHVYPTGGHGWGFRDNFKYKQQWTQELEKWLREGVVFPKETAPMLRIGKTYLGTKYVANTLDQGTEEKLVILPQTVDCLTFVEYTLAQAMGSSFADNLQKIRYRDGVIDGYTSRLHYTSDWIENGVRQGFLEDVTAQNSTQTTKLSLSYMSTHPQKYRQLADSPENVKRMAEHEKALSGKKVHWLPKGKLPDAGLPWIMDGDIIAITTNLPGLDVAHVGMAEYINGKLHLLHASSTLGKVVVSEEPLSQMLRNNKSWSGIRVVRMSHP | not soluble |
| MGSDKIHHHHHHLANTKELGPLRILISRLLKKAGELCFTASDLTISKEQAKLITRGAPRFPYHTPHNMLFWLDESQYVDKCIIQHGKYESASTNLVQQFVKEGQTVLDIGGNIGYYTVMFSKIVGRSGKVITFEPTAHYRSILEKNVQENQINNVLIRPEGLSDKAEKLTISIGSSTATLHAPEGQQIDSYEAIQLARLDDLVEQLDITKLDFIKIDVDGHEPSVLRGAQQTIKKFKPLILLEVSHLHYLEGNVFAWDFYDYLSSLNYYIYDEHEMCRITRRSDFLIRCANFDRSCNILLSPTLLNEH | not soluble |
